One may read the Kd as the constant that tells how readily two partners part at equilibrium. A word on the koff: it is a measure of how fast the partners let go of each other. Usually kon stands for the rate constant with which the complex forms.

Experiment [1] addresses T1, rat IAPP (rat, UniProt P12969 38-74).
T1 peptide (looked up): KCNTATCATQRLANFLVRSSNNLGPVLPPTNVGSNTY
The experiment is described as follows: not stated for the murine antibody; sentence follows the Biacore results. Background: In SPR one partner is held on a chip, and binding of the other changes the refractive index at the surface.

In experiment [2] the target is T1, rat IAPP. The experiment is described as follows: Biacore SPR; antibody captured on anti-human CM5 chip, rat IAPP flowed over; global 1:1 fit. As for the experimental part:
(§1) The affinity of various combinations of 6B8 humanized heavy chains and humanized light chain proteins for hIAPP was analyzed on a Biacore instrument. Biacore analysis was performed by preparing an anti-human CM5 chip following the protocol provided in the kit. The 6B8 antibody was captured such that the maximum binding of rat IAPP would not exceed 20-30 RU. […] Data was blank subtracted to both an irrelevant sensor not containing 6B8 and 0 IAPP concentration to account for the dissociation of 6B8 from the anti-human capture. Data was then analyzed using a global 1:1 fit.

Experiment [3] concerns the target T2, human islet-amyloid polypeptide (IAPP) (human).
T2 construct: also called hIAPP; human IAPP
T2 peptide: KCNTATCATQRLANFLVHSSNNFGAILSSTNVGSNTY
The experiment is described as follows: Biacore SPR; affinity compared with murine 6B8 as reference. How it is done: as §1

For experiment [4], the target named is T1, rat IAPP. As to the kind of experiment: Biacore SPR (result of Example 7 told in the description). How it is done:
as §1

In experiment [5] the target is T3, peptide NTATCATQRL, amino acids 3-12 of hIAPP (human).
T3 peptide: NTATCATQRL
The experiment is described as follows: epitope mapping against shorter peptides from hIAPP.

Where only a bound is given, the exact number is not on record here.

B1: chimeric mouse-human 6B8 antibody (antibody, V domains shown)
VH: QVQLQQPGAELVKPGASVRLSCKASGYTFTSYWMHWVKQRPGQGLEWLGEINPRNGHSNYNEKIRNKATLTADTSSSTVSMQLSSLTSEDSAVYYCTVNRGFYYFFDVWGTGTTVTVSS
VL: DVLMTQSPLSLPVSLGDQASISCRSSQSIAHSNGNTYLEWYLQKPGQSPKLLIYKVSNRFSGVPDRFSGSGSGTDFTLKISRVEAEDLGVYYCFQGSHIPRTFGGGTKLEIKR
notes: Mouse 6B8 variable regions with human constant regions; captured on an anti-human chip; also called ch6B8; chimeric 6B8 antibody
B1: in the experiment with rat IAPP [1], the “fold difference in affinity against the murine 6B8 antibody” value was at most 3 fold. In the experiment with rat IAPP [2], the Kd worked out at 23.4 nM, the koff is 0.00513 s⁻¹ and the kon was 220000 M⁻¹ s⁻¹. Further, the “fold of the affinity of the murine 6B8 antibody” value in experiment [3] was at most 3 fold.

B2: humanized 6B8 H2L1 antibody (antibody, V domains shown)
VH: QVQLQQSGAEVKKPGASVKVSCKASGYTFTSYWMHWVRQRPGQGLEWMGEINPRNGHSNYNEKIRNRVTMTADTSTSTVYMELSSLRSEDTAVYYCTVNRGFYYFFDVWGQGTTVTVSS
VL: DVLMTQSPLSLPVTPGEPASISCRSSQSIAHSNGNTYLEWYLQKPGQSPQLLIYKVSNRFSGVPDRFSGSGSGTDFTLKISRVEAEDVGVYYCFQGSHIPRTFGGGTKLEIKR
notes: Only variable regions are tied to the tested antibody; also called h6B8-H2L1; h6B8 H2L1
B2: the “fold difference in affinity against the murine 6B8 antibody” value with rat IAPP [1] was at most 3 fold. In the experiment with rat IAPP [2], the Kd came out at 31.2 nM, the dissociation rate constant (koff) is 0.00832 s⁻¹ and the kon was determined as 266000 M⁻¹ s⁻¹. In addition, the “fold of the affinity of the murine 6B8 antibody” value in experiment [3] was at most 3 fold. Further, the “factor of affinity against the mouse-human chimeric 6B8 antibody” value in the experiment with rat IAPP [4] was at most 1.5 fold.

B3: murine 6B8 antibody (LA21-6B8) (antibody, V domains shown)
VH: QVQLQQPGAELVKPGASVRLSCKASGYTFTSYWMHWVKQRPGQGLEWLGEINPRNGHSNYNEKIRNKATLTADTSSSTVSMQLSSLTSEDSAVYYCTVNRGFYYFFDVWGTGTTVTVSS
VL: DVLMTQSPLSLPVSLGDQASISCRSSQSIAHSNGNTYLEWYLQKPGQSPKLLIYKVSNRFSGVPDRFSGSGSGTDFTLKISRVEAEDLGVYYCFQGSHIPRTFGGGTKLEIKR
notes: also called m6B8; mouse 6B8
For B3, the binding result in experiment [5] is on record as “binds”.

These data come from US20150110777A1 (PROTHENA BIOSCIENCES, published 2015).
